# Results from patent US20170015742A1 (published 2017).
# Changes are numbered by the printed parent chain.
# B1: CODV004 cross-over DVD-Ig (PR-1565051) (bispecific antibody, human IgG1, kappa, L234A L235A)
# heavy: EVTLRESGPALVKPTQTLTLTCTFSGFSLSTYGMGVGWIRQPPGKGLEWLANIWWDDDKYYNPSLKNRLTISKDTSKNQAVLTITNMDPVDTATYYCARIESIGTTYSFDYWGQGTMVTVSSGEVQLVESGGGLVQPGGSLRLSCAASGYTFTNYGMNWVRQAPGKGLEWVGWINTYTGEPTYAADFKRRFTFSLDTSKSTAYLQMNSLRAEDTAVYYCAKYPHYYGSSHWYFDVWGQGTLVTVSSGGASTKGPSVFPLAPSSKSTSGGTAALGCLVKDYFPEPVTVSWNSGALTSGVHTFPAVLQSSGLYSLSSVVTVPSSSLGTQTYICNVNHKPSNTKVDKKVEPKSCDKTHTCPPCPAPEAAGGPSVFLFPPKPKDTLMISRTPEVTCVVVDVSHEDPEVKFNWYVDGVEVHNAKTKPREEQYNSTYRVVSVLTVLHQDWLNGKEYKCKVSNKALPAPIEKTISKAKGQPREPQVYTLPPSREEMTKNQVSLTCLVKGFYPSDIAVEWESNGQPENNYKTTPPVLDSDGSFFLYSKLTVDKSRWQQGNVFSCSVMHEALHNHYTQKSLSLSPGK
# light: DIQMTQSPSSLSASVGDRVTITCSASQDISNYLNWYQQKPGKAPKVLIYFTSSLHSGVPSRFSGSGSGTDFTLTISSLQPEDFATYYCQQYSTVPWTFGQGTKVEIKGGGSGGGDFQLTQSPSSLSASVGDRVTITCERSSGDIGDSYVSWYQQKPGKAPKNVIYADDQRPSGVPSRFSGSGSGNSASLTISSLQPEDFATYFCQSYDINIDIVFGQGTKVEIKGGGSGRTVAAPSVFIFPPSDEQLKSGTASVVCLLNNFYPREAKVQWKVDNALQSGNSQESVTEQDSKDSTYSLSSTLTLSKADYEKHKVYACEVTHQGLSSPVTKSFNRGEC
# B2: CODV018 cross-over DVD-Ig (PR-1571831) (bispecific antibody, human IgG1, kappa, L234A L235A)
# heavy: EFVLTQSPGTLSLSPGERATLSCERSSGDIGDSYVSWYQQKPGQAPRLVIYADDQRPSGIPDRFSGSGSGTDFTLTISRLEPEDFAVYYCQSYDINIDIVFGGGTKVEIKGGGSGGGDTVLTQSPATLSLSPGERATLSCRASESVSTHMHWYQQKPGQAPRLLIYGASNLESGVPARFSGSGSGTDFTLTISSLEPEDFAVYFCQQSWNDPFTFGQGTKLEIKGGGSGASTKGPSVFPLAPSSKSTSGGTAALGCLVKDYFPEPVTVSWNSGALTSGVHTFPAVLQSSGLYSLSSVVTVPSSSLGTQTYICNVNHKPSNTKVDKKVEPKSCDKTHTCPPCPAPEAAGGPSVFLFPPKPKDTLMISRTPEVTCVVVDVSHEDPEVKFNWYVDGVEVHNAKTKPREEQYNSTYRVVSVLTVLHQDWLNGKEYKCKVSNKALPAPIEKTISKAKGQPREPQVYTLPPSREEMTKNQVSLTCLVKGFYPSDIAVEWESNGQPENNYKTTPPVLDSDGSFFLYSKLTVDKSRWQQGNVFSCSVMHEALHNAYTQKSLSLSPGK
# light: EVQLVQSGSELKKPGASVKVSCKASGYTFTNYGMYWVRQAPGQGLEWMGWINTETGKPTYADDFKGRFVFSLDTSVSTAYLQISSLKAEDTAVYYCARTNYYYRSYIFYFDYWGQGTMVTVSSGEVTLRESGPALVKPTQTLTLTCTFSGFSLSTYGMGVGWIRQPPGKALEWLANIWWDDDKYYNPSLKNRLTISKDTSKNQVVLTMTNMDPVDTATYYCARIESIGTTYSFDYWGQGTMVTVSSGGRTVAAPSVFIFPPSDEQLKSGTASVVCLLNNFYPREAKVQWKVDNALQSGNSQESVTEQDSKDSTYSLSSTLTLSKADYEKHKVYACEVTHQGLSSPVTKSFNRGEC
# B3: CODV006 cross-over DVD-Ig (PR-1565084) (bispecific antibody, human IgG1, kappa, L234A L235A)
# heavy: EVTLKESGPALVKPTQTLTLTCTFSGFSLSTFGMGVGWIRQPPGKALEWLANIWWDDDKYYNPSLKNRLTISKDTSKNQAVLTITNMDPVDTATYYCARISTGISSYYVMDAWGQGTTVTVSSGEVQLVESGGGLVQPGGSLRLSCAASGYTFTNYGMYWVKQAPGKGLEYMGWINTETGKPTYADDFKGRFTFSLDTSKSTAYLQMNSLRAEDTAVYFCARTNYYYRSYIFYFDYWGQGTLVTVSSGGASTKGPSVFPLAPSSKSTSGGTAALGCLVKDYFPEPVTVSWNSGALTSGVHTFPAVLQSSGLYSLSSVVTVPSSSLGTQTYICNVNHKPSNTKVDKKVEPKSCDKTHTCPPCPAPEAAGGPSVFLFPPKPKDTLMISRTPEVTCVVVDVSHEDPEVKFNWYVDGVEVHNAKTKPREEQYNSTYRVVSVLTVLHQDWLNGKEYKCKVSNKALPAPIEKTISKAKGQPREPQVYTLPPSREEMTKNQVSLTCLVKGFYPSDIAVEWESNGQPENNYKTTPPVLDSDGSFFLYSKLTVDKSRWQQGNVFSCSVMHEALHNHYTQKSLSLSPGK
# light: DTQLTQSPSSLSASVGDRVTISCRASESVSTHMHWYQQKPGKAPKLLIYGASNLESGVPSRFSGSGSGTDFTLTISSLQPEDFATYFCQQSWNDPFTFGQGTKVEIKGGGSGGGDFQLTQSPSSLSASVGDRVTITCERSSGDIGDTYVSWYQQKPGKAPKNVIYGNDQRPSGVPSRFSGSGSGNSATLTISSLQPEDFATYFCQSYDSDIDIVFGQGTKVEIKGGGSGRTVAAPSVFIFPPSDEQLKSGTASVVCLLNNFYPREAKVQWKVDNALQSGNSQESVTEQDSKDSTYSLSSTLTLSKADYEKHKVYACEVTHQGLSSPVTKSFNRGEC
# B4: CODV008 cross-over DVD-Ig (PR-1565086) (bispecific antibody, human IgG1, kappa, L234A L235A)
# heavy: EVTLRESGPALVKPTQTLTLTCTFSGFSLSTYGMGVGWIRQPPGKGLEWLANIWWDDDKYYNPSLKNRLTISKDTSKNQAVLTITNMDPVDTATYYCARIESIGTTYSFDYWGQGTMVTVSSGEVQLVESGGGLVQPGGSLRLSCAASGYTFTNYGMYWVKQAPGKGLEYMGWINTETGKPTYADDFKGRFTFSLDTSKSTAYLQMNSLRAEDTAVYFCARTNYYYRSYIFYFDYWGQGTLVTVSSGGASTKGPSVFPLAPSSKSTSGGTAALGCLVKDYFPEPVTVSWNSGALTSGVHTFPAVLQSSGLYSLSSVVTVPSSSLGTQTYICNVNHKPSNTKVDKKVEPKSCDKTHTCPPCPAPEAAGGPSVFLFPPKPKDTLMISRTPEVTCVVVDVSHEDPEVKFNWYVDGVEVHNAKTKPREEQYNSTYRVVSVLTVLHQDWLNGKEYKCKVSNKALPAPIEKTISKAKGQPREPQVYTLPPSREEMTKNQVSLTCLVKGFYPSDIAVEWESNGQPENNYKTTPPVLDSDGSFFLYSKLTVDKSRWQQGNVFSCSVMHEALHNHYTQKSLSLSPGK
# light: B3 light with T147S, G166A, N167D, T188S, S209I, D210N
# B5: CODV005 cross-over DVD-Ig (PR-1565083) (bispecific antibody, human IgG1, kappa, L234A L235A)
# heavy: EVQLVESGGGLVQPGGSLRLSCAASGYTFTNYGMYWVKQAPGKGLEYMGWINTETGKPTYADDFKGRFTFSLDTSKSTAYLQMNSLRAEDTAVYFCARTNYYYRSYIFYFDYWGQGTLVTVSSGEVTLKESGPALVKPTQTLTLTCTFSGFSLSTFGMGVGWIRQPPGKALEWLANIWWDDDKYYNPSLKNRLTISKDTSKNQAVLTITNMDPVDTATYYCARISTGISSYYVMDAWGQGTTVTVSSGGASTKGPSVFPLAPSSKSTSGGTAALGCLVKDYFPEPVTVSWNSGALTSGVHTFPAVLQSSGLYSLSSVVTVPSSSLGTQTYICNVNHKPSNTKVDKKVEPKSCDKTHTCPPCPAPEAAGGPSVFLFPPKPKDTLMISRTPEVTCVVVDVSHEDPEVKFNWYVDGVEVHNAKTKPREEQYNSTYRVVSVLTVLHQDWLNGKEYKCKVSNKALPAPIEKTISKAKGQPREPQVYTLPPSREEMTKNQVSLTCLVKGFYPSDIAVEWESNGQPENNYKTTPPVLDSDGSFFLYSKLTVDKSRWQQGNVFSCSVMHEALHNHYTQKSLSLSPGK
# light: DFQLTQSPSSLSASVGDRVTITCERSSGDIGDTYVSWYQQKPGKAPKNVIYGNDQRPSGVPSRFSGSGSGNSATLTISSLQPEDFATYFCQSYDSDIDIVFGQGTKVEIKGGGSGGGDTQLTQSPSSLSASVGDRVTISCRASESVSTHMHWYQQKPGKAPKLLIYGASNLESGVPSRFSGSGSGTDFTLTISSLQPEDFATYFCQQSWNDPFTFGQGTKVEIKGGGSGRTVAAPSVFIFPPSDEQLKSGTASVVCLLNNFYPREAKVQWKVDNALQSGNSQESVTEQDSKDSTYSLSSTLTLSKADYEKHKVYACEVTHQGLSSPVTKSFNRGEC
# B6: CODV007 cross-over DVD-Ig (PR-1565085) (bispecific antibody, human IgG1, kappa, L234A L235A)
# heavy: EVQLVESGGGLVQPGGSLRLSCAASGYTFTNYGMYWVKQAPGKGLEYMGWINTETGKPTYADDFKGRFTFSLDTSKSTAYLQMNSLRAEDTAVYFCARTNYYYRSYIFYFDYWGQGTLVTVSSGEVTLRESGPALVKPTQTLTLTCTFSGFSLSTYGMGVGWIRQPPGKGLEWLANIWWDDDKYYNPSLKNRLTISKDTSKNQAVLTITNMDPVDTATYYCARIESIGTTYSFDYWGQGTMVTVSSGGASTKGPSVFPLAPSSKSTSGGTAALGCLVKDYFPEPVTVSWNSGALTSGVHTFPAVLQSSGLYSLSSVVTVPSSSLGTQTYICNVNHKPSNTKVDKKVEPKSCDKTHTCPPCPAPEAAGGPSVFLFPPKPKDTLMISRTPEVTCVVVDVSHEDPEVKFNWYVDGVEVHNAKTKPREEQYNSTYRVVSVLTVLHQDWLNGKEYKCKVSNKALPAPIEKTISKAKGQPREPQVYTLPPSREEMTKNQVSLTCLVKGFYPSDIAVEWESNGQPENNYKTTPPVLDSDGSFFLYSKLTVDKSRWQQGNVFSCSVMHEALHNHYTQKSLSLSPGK
# light: B5 light with T33S, G52A, N53D, T74S, S95I, D96N
# B7: DVD3906 DVD-Ig (PR-1565035) (bispecific antibody, human IgG1, kappa, L234A L235A)
# heavy: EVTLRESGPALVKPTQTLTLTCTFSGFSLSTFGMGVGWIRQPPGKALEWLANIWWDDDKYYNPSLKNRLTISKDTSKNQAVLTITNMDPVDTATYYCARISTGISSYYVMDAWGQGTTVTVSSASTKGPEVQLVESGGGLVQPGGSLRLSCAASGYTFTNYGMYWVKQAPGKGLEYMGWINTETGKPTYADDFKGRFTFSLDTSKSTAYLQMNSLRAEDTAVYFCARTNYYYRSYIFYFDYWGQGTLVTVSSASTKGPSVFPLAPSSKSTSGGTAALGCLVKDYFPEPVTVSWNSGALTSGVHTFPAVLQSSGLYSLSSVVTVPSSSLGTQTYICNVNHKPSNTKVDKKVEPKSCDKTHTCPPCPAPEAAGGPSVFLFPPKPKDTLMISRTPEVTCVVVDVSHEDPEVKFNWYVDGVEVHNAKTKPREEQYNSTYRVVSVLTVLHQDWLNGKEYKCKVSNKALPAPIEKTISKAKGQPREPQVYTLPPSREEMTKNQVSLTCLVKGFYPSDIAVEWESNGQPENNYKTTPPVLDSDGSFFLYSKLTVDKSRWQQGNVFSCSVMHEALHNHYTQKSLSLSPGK
# light: DFQLTQSPSSLSASVGDRVTITCERSSGDIGDTYVSWYQQKPGKAPKNVIYGNDQRPSGVPSRFSGSGSGNSATLTISSLQPEDFATYFCQSYDSDIDIVFGQGTKVEIKGTVAAPSVFIFPPDTQLTQSPSSLSASVGDRVTISCRASESVSTHMHWYQQKPGKAPKLLIYGASNLESGVPSRFSGSGSGTDFTLTISSLQPEDFATYFCQQSWNDPFTFGQGTKVEIKRTVAAPSVFIFPPSDEQLKSGTASVVCLLNNFYPREAKVQWKVDNALQSGNSQESVTEQDSKDSTYSLSSTLTLSKADYEKHKVYACEVTHQGLSSPVTKSFNRGEC
# B8: DVD3904 DVD-Ig (PR-1565031) (bispecific antibody, human IgG1, kappa, L234A L235A)
# heavy: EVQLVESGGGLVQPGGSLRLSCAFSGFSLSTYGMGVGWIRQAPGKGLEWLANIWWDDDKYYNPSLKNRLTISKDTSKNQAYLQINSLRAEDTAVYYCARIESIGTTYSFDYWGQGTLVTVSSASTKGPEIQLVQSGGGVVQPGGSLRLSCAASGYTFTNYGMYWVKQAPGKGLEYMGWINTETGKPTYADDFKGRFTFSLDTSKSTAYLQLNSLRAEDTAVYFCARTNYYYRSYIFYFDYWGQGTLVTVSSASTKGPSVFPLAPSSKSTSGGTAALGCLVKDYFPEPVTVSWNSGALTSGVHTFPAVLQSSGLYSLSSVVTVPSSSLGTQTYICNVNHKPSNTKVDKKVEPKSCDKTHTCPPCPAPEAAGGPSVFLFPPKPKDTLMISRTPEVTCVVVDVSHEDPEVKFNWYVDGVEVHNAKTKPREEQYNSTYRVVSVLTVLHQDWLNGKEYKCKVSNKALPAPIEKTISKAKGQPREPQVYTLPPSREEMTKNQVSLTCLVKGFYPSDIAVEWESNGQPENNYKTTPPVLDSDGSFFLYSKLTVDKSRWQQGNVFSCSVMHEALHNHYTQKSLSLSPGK
# light: DFQLTQSPSSLSASVGDRVTITCERSSGDIGDSYVSWYQQKPGKAPKNVIYADDQRPSGVPSRFSGSGSGNSASLTISSLQPEDFATYFCQSYDINIDIVFGQGTKVEIKGTVAAPSVFIFPPDTVLTQSPSTLSASPGERATISCRASESVSTHMHWYQQKPGQAPKLLIYGASNLESGVPSRFSGSRSGTDFTLTISSLQPEDFAVYFCQQSWNDPFTFGQGTKVEIKRTVAAPSVFIFPPSDEQLKSGTASVVCLLNNFYPREAKVQWKVDNALQSGNSQESVTEQDSKDSTYSLSSTLTLSKADYEKHKVYACEVTHQGLSSPVTKSFNRGEC
# B9: DVD3905 DVD-Ig (PR-1565032) (bispecific antibody, human IgG1, kappa, L234A L235A)
# heavy: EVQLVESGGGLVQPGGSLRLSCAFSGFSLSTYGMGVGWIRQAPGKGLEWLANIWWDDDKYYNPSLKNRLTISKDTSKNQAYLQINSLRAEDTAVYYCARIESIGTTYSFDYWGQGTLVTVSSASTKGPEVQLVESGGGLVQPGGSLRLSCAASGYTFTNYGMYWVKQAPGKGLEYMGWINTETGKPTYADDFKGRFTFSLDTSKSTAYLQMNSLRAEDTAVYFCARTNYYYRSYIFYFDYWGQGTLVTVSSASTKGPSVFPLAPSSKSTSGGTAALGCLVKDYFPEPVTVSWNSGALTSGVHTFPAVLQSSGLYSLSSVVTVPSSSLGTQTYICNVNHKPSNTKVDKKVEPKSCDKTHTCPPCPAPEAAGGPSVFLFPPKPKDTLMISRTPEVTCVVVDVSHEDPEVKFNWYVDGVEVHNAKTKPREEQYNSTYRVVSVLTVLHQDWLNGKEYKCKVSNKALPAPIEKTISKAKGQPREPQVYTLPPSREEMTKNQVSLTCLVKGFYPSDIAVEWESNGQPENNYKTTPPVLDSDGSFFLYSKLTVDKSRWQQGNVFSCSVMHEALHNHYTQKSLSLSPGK
# light: B7 light with T33S, G52A, N53D, T74S, S95I, D96N
# B10: CODV003 cross-over DVD-Ig (PR-1565044) (bispecific antibody, human IgG1, kappa, L234A L235A)
# heavy: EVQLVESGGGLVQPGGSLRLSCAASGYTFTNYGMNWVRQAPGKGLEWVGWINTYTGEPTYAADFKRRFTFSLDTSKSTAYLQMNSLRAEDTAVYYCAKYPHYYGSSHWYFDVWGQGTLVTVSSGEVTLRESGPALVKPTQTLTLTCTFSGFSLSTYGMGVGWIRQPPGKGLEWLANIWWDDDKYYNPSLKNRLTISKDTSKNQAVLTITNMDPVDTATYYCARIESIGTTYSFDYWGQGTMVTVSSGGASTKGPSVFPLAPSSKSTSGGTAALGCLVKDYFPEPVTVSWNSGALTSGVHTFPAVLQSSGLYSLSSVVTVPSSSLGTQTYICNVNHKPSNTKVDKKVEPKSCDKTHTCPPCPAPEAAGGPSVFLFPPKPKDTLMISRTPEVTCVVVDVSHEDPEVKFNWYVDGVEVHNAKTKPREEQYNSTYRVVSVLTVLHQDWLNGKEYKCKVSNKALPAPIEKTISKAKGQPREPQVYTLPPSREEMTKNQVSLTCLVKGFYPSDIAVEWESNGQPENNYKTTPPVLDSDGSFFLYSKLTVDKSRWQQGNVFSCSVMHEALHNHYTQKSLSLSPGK
# light: DFQLTQSPSSLSASVGDRVTITCERSSGDIGDSYVSWYQQKPGKAPKNVIYADDQRPSGVPSRFSGSGSGNSASLTISSLQPEDFATYFCQSYDINIDIVFGQGTKVEIKGGGSGGGDIQMTQSPSSLSASVGDRVTITCSASQDISNYLNWYQQKPGKAPKVLIYFTSSLHSGVPSRFSGSGSGTDFTLTISSLQPEDFATYYCQQYSTVPWTFGQGTKVEIKGGGSGRTVAAPSVFIFPPSDEQLKSGTASVVCLLNNFYPREAKVQWKVDNALQSGNSQESVTEQDSKDSTYSLSSTLTLSKADYEKHKVYACEVTHQGLSSPVTKSFNRGEC
# B11: CODV017 cross-over DVD-Ig (PR-1571830) (bispecific antibody, human IgG1, kappa, L234A L235A)
# heavy: DTVLTQSPATLSLSPGERATLSCRASESVSTHMHWYQQKPGQAPRLLIYGASNLESGVPARFSGSGSGTDFTLTISSLEPEDFAVYFCQQSWNDPFTFGQGTKLEIKGGGSGGGEFVLTQSPGTLSLSPGERATLSCERSSGDIGDSYVSWYQQKPGQAPRLVIYADDQRPSGIPDRFSGSGSGTDFTLTISRLEPEDFAVYYCQSYDINIDIVFGGGTKVEIKGGGSGASTKGPSVFPLAPSSKSTSGGTAALGCLVKDYFPEPVTVSWNSGALTSGVHTFPAVLQSSGLYSLSSVVTVPSSSLGTQTYICNVNHKPSNTKVDKKVEPKSCDKTHTCPPCPAPEAAGGPSVFLFPPKPKDTLMISRTPEVTCVVVDVSHEDPEVKFNWYVDGVEVHNAKTKPREEQYNSTYRVVSVLTVLHQDWLNGKEYKCKVSNKALPAPIEKTISKAKGQPREPQVYTLPPSREEMTKNQVSLTCLVKGFYPSDIAVEWESNGQPENNYKTTPPVLDSDGSFFLYSKLTVDKSRWQQGNVFSCSVMHEALHNAYTQKSLSLSPGK
# light: EVTLRESGPALVKPTQTLTLTCTFSGFSLSTYGMGVGWIRQPPGKALEWLANIWWDDDKYYNPSLKNRLTISKDTSKNQVVLTMTNMDPVDTATYYCARIESIGTTYSFDYWGQGTMVTVSSGEVQLVQSGSELKKPGASVKVSCKASGYTFTNYGMYWVRQAPGQGLEWMGWINTETGKPTYADDFKGRFVFSLDTSVSTAYLQISSLKAEDTAVYYCARTNYYYRSYIFYFDYWGQGTMVTVSSGGRTVAAPSVFIFPPSDEQLKSGTASVVCLLNNFYPREAKVQWKVDNALQSGNSQESVTEQDSKDSTYSLSSTLTLSKADYEKHKVYACEVTHQGLSSPVTKSFNRGEC
# B12: CODV021 cross-over DVD-Ig (PR-1577053) (bispecific antibody, human IgG1, kappa, L234A L235A)
# heavy: EVQLVQSGSELKKPGASVKVSCKASGYTFTNYGMYWVRQAPGQGLEWMGWINTETGKPTYADDFKGRFVFSLDTSVSTAYLQISSLKAEDTAVYYCARTNYYYRSYIFYFDYWGQGTMVTVSSGGGGSGGGEFVLTQSPGTLSLSPGERATLSCERSSGDIGESYVSWYQQKPGQAPRLVIYADDQRPSGIPDRFSGSGSGTDFTLTISRLEPEDFAVYYCQSYDINIDIVFGGGTKVEIKGGGSGASTKGPSVFPLAPSSKSTSGGTAALGCLVKDYFPEPVTVSWNSGALTSGVHTFPAVLQSSGLYSLSSVVTVPSSSLGTQTYICNVNHKPSNTKVDKKVEPKSCDKTHTCPPCPAPEAAGGPSVFLFPPKPKDTLMISRTPEVTCVVVDVSHEDPEVKFNWYVDGVEVHNAKTKPREEQYNSTYRVVSVLTVLHQDWLNGKEYKCKVSNKALPAPIEKTISKAKGQPREPQVYTLPPSREEMTKNQVSLTCLVKGFYPSDIAVEWESNGQPENNYKTTPPVLDSDGSFFLYSKLTVDKSRWQQGNVFSCSVMHEALHNAYTQKSLSLSPGK
# light: EVTLRESGPALVKPTQTLTLTCTFSGFSLSTYGMGVGWIRQPPGKALEWLANIWWDDDKYYNPSLKNRLTISKDTSKNQVVLTMTNMDPVDTATYYCARIESIGTTYSFDYWGQGTMVTVSSGGGGSGGGDTVLTQSPATLSLSPGERATLSCRASESVSTHMHWYQQKPGQAPRLLIYGASNLESGVPARFSGSGSGTDFTLTISSLEPEDFAVYFCQQSWNDPFTFGQGTKLEIKGGSRTVAAPSVFIFPPSDEQLKSGTASVVCLLNNFYPREAKVQWKVDNALQSGNSQESVTEQDSKDSTYSLSSTLTLSKADYEKHKVYACEVTHQGLSSPVTKSFNRGEC
# B13: CODV022 cross-over DVD-Ig (PR-1577056) (bispecific antibody, human IgG1, kappa, L234A L235A)
# heavy: B12 heavy
# light: EVTLRESGPALVKPTQTLTLTCTFSGFSLSTYGMGVGWIRQPPGKALEWLANIWWDDDKYYNPSLKNRLTISKDTSKNQVVLTMTNMDPVDTATYYCARIESIGTTYSFDYWGQGTMVTVSSGGGGSDTVLTQSPATLSLSPGERATLSCRASESVSTHMHWYQQKPGQAPRLLIYGASNLESGVPARFSGSGSGTDFTLTISSLEPEDFAVYFCQQSWNDPFTFGQGTKLEIKGGSRTVAAPSVFIFPPSDEQLKSGTASVVCLLNNFYPREAKVQWKVDNALQSGNSQESVTEQDSKDSTYSLSSTLTLSKADYEKHKVYACEVTHQGLSSPVTKSFNRGEC
# Molecular target: recombinant human PDGF-BB (human, UniProt P01127 82-190)
# Test: cell-based or functional assay
# recombinant human PDGF-BB, sequence (P01127 82-190 limits assumed): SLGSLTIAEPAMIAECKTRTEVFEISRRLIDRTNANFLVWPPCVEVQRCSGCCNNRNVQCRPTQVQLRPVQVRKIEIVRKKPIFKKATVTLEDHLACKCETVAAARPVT
row,NIH-3T3 hPDGF-BB Potency IC50 [nM],Binder
1,> 5,B1
2,> 5,B2
3,> 5,B3
4,> 5,B4
5,> 5,B5
6,> 5,B6
7,> 5,B7
8,> 5,B8
9,> 5,B9
10,> 5,B10
11,> 5,B11
12,0.056,B12
13,0.059,B13
